Columns and labels:
DDR1 (416-913aa)-EGFP = target: T1, DDR1 (416-913aa)-EGFP (human, UniProt Q08345 416-913); assay: cell-free droplet (phase separation) assay + turbidity; purified DDR1-C or DDR1-N (5 μM) incubated with varying concentrations of YWHAE-Cherry; 20 mM Tris-HCl pH 7.0, 75 mmol/L KCl, 1 mmol/L DTT, 4 °C 5-10 min, confocal imaging; turbidity at 600 nm with 5% PEG8000; settings: both partners purified
T1 construct: human DDR1 (DDR1b), residues 416-913, containing the transmembrane and cytosolic domains; also called DDR1-C; source: E. coli Transetta (DE3), purified (Ni-NTA)

[1] = target: the molecule itself; assay: dual-color FRAP with antibody immobilisation; EA.hy926 ECs co-expressing DDR1-EGFP and mCherry-DDR1, 5 min pre-shear; anti-mCherry polyclonal antibody immobilises the mCherry copy, lateral mobility of the EGFP copy read by FRAP

| Binder | binding result (DDR1 (416-913aa)-EGFP) | FRAP recovery ratio of the EGFP copy with the mCherry copy immobilised [1] [%] |
| --- | --- | --- |
| YWHAE-Cherry recombinant protein (natural protein, UniProt P62258 1-255, looked up, YWHAE (14-3-3ε), Uniprot No. P62258; also called recombinant YWHAE protein; source: bought: Dai-An Biotechnology (Wuhan); expressed by E. coli BL21 (DE3), purity >90% by SDS-PAGE; not shown: mCherry, C-terminal, kept) MDDREDLVYQAKLAEQAERYDEMVESMKKVAGMDVELTVEERNLLSVAYKNVIGARRASWRIISSIEQKEENKGGEDKLKMIREYRQMVETELKLICCDILDVLDKHLIPAANTGESKVFYYKMKGDYHRYLAEFATGNDRKEAAENSLVAYKAASDIAMTELPPTHPIRLGLALNFSVFYYEILNSPDRACRLAKAAFDDAIAELDTLSEESYKDSTLIMQLLRDNLTLWTSDMQGDGEEQNKEALQDVEDENQ | binds |  |
| WT DDR1-EGFP co-expressed with mCherry-WT DDR1 (dual-color FRAP) (receptor, human, UniProt Q08345 19-913, looked up, human DDR1, DDR1b isoform, from a plasmid with full-length DDR1b; Two differently tagged copies of the same protein in one cell: each copy has only one of the two fluorescent proteins; The mCherry copy is held by an anti-mCherry polyclonal antibody, the EGFP copy is the one whose mobility is read; also called DDR1 (WT)-GFP; mCherry-DDR1 (WT); source: EA.hy926 ECs, transfected, in living cells; …) DADMKGHFDPAKCRYALGMQDRTIPDSDISASSSWSDSTAARHSRLESSDGDGAWCPAGSVFPKEEEYLQVDLQRLHLVALVGTQGRHAGGLGKEFSRSYRLRYSRDGRRWMGWKDRWGQEVISGNEDPEGVVLKDLGPPMVARLVRFYPRADRVMSVCLRVELYGCLWRDGLLSYTAPVGQTMYLSEAVYLNDSTYDGHTVGGLQYGGLGQLADGVVGLDDFRKSQELRVWPGYDYVGWSNHSFSSGYVEMEFEFDRLRAFQAMQVHCNNMHTLGARLPGGVECRFRRGPAMAWEGEPMRHNLGGNLGDPRARAVSVPLGGRVARFLQCRFLFAGPWLLFSEISFISDVVNNSSPALGGTFPPAPWWPPGPPPTNFSSLELEPRGQQPVAKAEGSPTAILIGCLVAIILLLLLIIALMLWRLHWRRLLSKAERRVLEEELTVHLSVPGDTILINNRPGPREPPPYQEPRPRGNPPHSAPCVPNGSALLLSNPAYRLLLATYARPPRGPGPPTPAWAKPTNTQAYSGDYMEPEKPGAPLLPPPPQNSVPHYAEADIVTLQGVTGGNTYAVPALPPGAVGDGPPRVDFPRSRLRFKEKLGEGQFGEVHLCEVDSPQDLVSLDFPLNVRKGHPLLVAVKILRPDATKNARNDFLKEVKIMSRLKDPNIIRLLGVCVQDDPLCMITDYMENGDLNQFLSAHQLEDKAAEGAPGDGQAAQGPTISYPMLLHVAAQIASGMRYLATLNFVHRDLATRNCLVGENFTIKIADFGMSRNLYAGDYYRVQGRAVLPIRWMAWECILMGKFTTASDVWAFGVTLWEVLMLCRAQPFGQLTDEQVIENAGEFFRDQGRQVYLSRPPACPQGLYELMLRCWSRESEQRPPFSQLHRFLAEDALNTV |  | 49.2 ± 9.6 |
| locked DDR1-EGFP (D189C/F364C) co-expressed with mCherry-locked DDR1 (dual-color FRAP) (receptor, human, UniProt Q08345 19-913, looked up, human DDR1, DDR1b isoform, DS-like domain locked by two cysteines; Two differently tagged copies of the same mutant in one cell, as for m3; also called DS-like locked mutant; source: EA.hy926 ECs, transfected, in living cells; not shown: EGFP (on one copy); mCherry (on the other copy)) DADMKGHFDPAKCRYALGMQDRTIPDSDISASSSWSDSTAARHSRLESSDGDGAWCPAGSVFPKEEEYLQVDLQRLHLVALVGTQGRHAGGLGKEFSRSYRLRYSRDGRRWMGWKDRWGQEVISGNEDPEGVVLKDLGPPMVARLVRFYPRADRVMSVCLRVELYGCLWRCGLLSYTAPVGQTMYLSEAVYLNDSTYDGHTVGGLQYGGLGQLADGVVGLDDFRKSQELRVWPGYDYVGWSNHSFSSGYVEMEFEFDRLRAFQAMQVHCNNMHTLGARLPGGVECRFRRGPAMAWEGEPMRHNLGGNLGDPRARAVSVPLGGRVARFLQCRFLFAGPWLLFSEISCISDVVNNSSPALGGTFPPAPWWPPGPPPTNFSSLELEPRGQQPVAKAEGSPTAILIGCLVAIILLLLLIIALMLWRLHWRRLLSKAERRVLEEELTVHLSVPGDTILINNRPGPREPPPYQEPRPRGNPPHSAPCVPNGSALLLSNPAYRLLLATYARPPRGPGPPTPAWAKPTNTQAYSGDYMEPEKPGAPLLPPPPQNSVPHYAEADIVTLQGVTGGNTYAVPALPPGAVGDGPPRVDFPRSRLRFKEKLGEGQFGEVHLCEVDSPQDLVSLDFPLNVRKGHPLLVAVKILRPDATKNARNDFLKEVKIMSRLKDPNIIRLLGVCVQDDPLCMITDYMENGDLNQFLSAHQLEDKAAEGAPGDGQAAQGPTISYPMLLHVAAQIASGMRYLATLNFVHRDLATRNCLVGENFTIKIADFGMSRNLYAGDYYRVQGRAVLPIRWMAWECILMGKFTTASDVWAFGVTLWEVLMLCRAQPFGQLTDEQVIENAGEFFRDQGRQVYLSRPPACPQGLYELMLRCWSRESEQRPPFSQLHRFLAEDALNTV |  | 67.6 ± 4 |

From publication PMC10576099, “Endothelial discoidin domain receptor 1 senses flow to modulate YAP activation” (Nature Communications, 2023)
